{"source": "patent US20090202980A1", "about": "(CROSSBETA BIOSCIENCES B V, published 2009)", "binders": {"B1": {"name": "human islet amyloid polypeptide, full length (fl-hIAPP) (peptide)", "peptide": "KCNTATCATQRLANFLVHSSNNFGAILSSTNVGSNTY"}, "B2": {"name": "plasminogen (enzyme, UniProt P00747 20-810, looked up)", "chain": "EPLDDYVNTQGASLFSVTKKQLGAGSIEECAAKCEEDEEFTCRAFQYHSKEQQCVIMAENRKSSIIIRMRDVVLFEKKVYLSECKTGNGKNYRGTMSKTKNGITCQKWSSTSPHRPRFSPATHPSEGLEENYCRNPDNDPQGPWCYTTDPEKRYDYCDILECEEECMHCSGENYDGKISKTMSGLECQAWDSQSPHAHGYIPSKFPNKNLKKNYCRNPDRELRPWCFTTDPNKRWELCDIPRCTTPPPSSGPTYQCLKGTGENYRGNVAVTVSGHTCQHWSAQTPHTHNRTPENFPCKNLDENYCRNPDGKRAPWCHTTNSQVRWEYCKIPSCDSSPVSTEQLAPTAPPELTPVVQDCYHGDGQSYRGTSSTTTTGKKCQSWSSMTPHRHQKTPENYPNAGLTMNYCRNPDADKGPWCFTTDPSVRWEYCNLKKCSGTEASVVAPPPVVLLPDVETPSEEDCMFGNGKGYRGKRATTVTGTPCQDWAAQEPHRHSIFTPETNPRAGLEKNYCRNPDGDVGGPWCYTTNPRKLYDYCDVPQCAAPSFDCGKPQVEPKKCPGRVVGGCVAHPHSWPWQVSLRTRFGMHFCGGTLISPEWVLTAAHCLEKSPRPSSYKVILGAHQEVNLEPHVQEIEVSRLFLEPTRKDIALLKLSSPAVITDKVIPACLPSPNYVVADRTECFITGWGETQGTFGAGLLKEAQLPVIENKVCNRYEFLNGRVQSTELCAGHLAGGTDSCQGDSGGPLVCFEKDKYILQGVTSWGLGCARPNKPGVYVRVSRFVTWIEGVMRNN", "notes": "also called Plg"}, "B3": {"name": "tPA EGF-GST (EGF domain of human tPA with C-terminal GST tag) (other, UniProt P00750 86-122, looked up)", "chain": "CSEPRCFNGGTCQQALYFSDFVCQCPEGFAGKCCEID", "notes": "domain: EGF; not shown: vector residues and thrombin cleavage site; Schistosoma japonicum glutathion-S-transferase (GST) tag"}, "B4": {"name": "mouse non-amyloidogenic IAPP(20-29) core (ΔmIAPP) (peptide)", "peptide": "SNNLGPVLPP", "notes": "Non-amyloid negative control peptide; also called mΔIAPP; MΔIAPP"}}, "key": {"[1]": {"biological_target": "T1, tPA-F-EGF-GST (finger and EGF domains of human tPA with C-terminal GST tag) (human; Schistosoma japonicum, UniProt P00750 36-122)", "T1 construct": "domain: F-EGF; also called F-EGF-tPA; not shown: vector residues and thrombin cleavage site; Schistosoma japonicum glutathion-S-transferase (GST) tag", "T1 sequence (looked up)": "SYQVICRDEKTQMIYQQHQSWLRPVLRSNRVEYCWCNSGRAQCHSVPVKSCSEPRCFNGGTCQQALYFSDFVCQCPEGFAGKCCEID", "test": "ELISA, 25 µg/ml peptide immobilized, excess εACA, anti-GST detection"}, "[2]": {"biological_target": "T2, tPA K1-GST (kringle 1 domain of human tPA with C-terminal GST tag) (human; Schistosoma japonicum, UniProt P00750 123-210)", "T2 construct": "domain: K1; not shown: vector residues and thrombin cleavage site; Schistosoma japonicum glutathion-S-transferase (GST) tag", "T2 sequence (looked up)": "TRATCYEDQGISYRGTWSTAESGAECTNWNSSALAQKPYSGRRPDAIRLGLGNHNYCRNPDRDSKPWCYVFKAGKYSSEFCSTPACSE", "test": "pull-down with IAPP fibrils, Western blot", "text": "(§1) Conditioned medium was used for pull-down assays using Aβ and IAPP fibrils, followed by Western blot analyses."}, "[3]": {"biological_target": "T3, recombinant tissue-type plasminogen activator (tPA) (human, UniProt P00750 36-562)", "T3 construct": "Commercial full-length recombinant tPA; also called Alteplase; Actilyse", "test": "ELISA on Exiqon plates"}, "[4]": {"biological_target": "T4, Fn F4-5-GST (finger domains 4-5 of human fibronectin with C-terminal GST tag) (human; Schistosoma japonicum, UniProt P02751 182-276)", "T4 construct": "domain: fibronectin type I domains 4-5; Printed in places as Fn F4-S-GST (a misprint of F4-5); also called Fn F4-S-GST; fibronectin F4-5; not shown: (G)RP vector residues and thrombin cleavage site; Schistosoma japonicum glutathion-S-transferase (GST) tag", "T4 sequence (P02751 182-276, tags left off)": "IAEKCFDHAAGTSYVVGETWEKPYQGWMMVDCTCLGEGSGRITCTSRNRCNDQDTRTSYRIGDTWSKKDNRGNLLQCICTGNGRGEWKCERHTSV", "test": "ELISA, immobilized peptide"}, "[5]": {"biological_target": "T3, recombinant tissue-type plasminogen …", "test": "ELISA, 25 µg/ml peptide immobilized on Exiqon plates"}, "[6]": {"biological_target": "T5, human amyloid-β peptide Aβ(1-40) (human)", "T5 construct": "also called hAβ(1-40); amyloid-β(1-40)", "T5 sequence (peptide, as listed by the source)": "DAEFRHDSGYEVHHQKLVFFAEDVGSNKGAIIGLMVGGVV", "test": "ELISA, Aβ coated, plasminogen overlaid"}, "[7]": {"biological_target": "B1", "test": "pull-down with IAPP fibrils, Western blot", "text": "as §1"}, "[8]": {"biological_target": "T5, human amyloid-β peptide Aβ(1-40)", "test": "pull-down with Aβ fibrils, Western blot", "procedure": "“Control,” medium before the pull-down, “Aβ,” washed amyloid Aβ pellet, after the pull-down, “Sup,” medium after extraction with Aβ. […] MΔIAPP was coated as non-amyloid negative control (Panel E). […] The same sections were incubated with Congo red (Panels I, K, and M) to locate amyloid deposits. Panels N and O: Pull-down assay with insoluble Aβ fibrils and finger domains. […] “Control,” medium before the pull-down, “Aβ,” washed amyloid Aβ pellet, after the pull-down, “Sup,” medium after extraction with Aβ.\nas §1"}, "[9]": {"biological_target": "T6, human factor XII (Hageman factor) (human, UniProt P00748 20-615)", "T6 construct": "also called FXII; fXII", "T6 sequence (looked up)": "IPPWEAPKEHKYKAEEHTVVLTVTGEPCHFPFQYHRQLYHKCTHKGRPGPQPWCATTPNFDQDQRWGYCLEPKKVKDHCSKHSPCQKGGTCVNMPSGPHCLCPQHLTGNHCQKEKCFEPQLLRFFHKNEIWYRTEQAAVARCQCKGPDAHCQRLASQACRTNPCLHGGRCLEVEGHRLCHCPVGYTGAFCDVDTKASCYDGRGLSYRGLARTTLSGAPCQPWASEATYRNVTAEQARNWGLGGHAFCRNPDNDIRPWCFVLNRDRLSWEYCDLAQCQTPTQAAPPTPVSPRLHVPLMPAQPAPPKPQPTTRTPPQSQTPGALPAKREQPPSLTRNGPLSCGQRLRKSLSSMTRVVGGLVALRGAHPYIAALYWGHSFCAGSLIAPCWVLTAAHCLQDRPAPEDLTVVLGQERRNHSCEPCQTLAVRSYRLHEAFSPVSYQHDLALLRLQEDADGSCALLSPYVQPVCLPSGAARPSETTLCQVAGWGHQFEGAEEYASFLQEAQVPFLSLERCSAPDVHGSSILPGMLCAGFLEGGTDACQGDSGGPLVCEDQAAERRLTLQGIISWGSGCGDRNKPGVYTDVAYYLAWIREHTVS", "test": "ELISA, coated peptide, FXII overlaid", "text": "Ten μg of the peptides that contain cross-β structure, as well as the negative control peptide mΔIAPP and phosphate-buffered saline (PBS), were spotted in duplicate.\nWells were coated in triplicate. […] Ten μg of the peptides that contain cross-β structure, as well as the negative control peptide MΔIAPP and phosphate-buffered saline (PBS), were spotted in duplicate onto methanol-activated nitrocellulose."}, "[10]": {"biological_target": "T1, tPA-F-EGF-GST (finger and EGF domains …)", "test": "ELISA, 25 µg/ml peptide immobilized, excess εACA"}, "[11]": {"biological_target": "T3, recombinant tissue-type plasminogen …", "test": "ELISA, 25 µg/ml peptide immobilized"}}, "data": [{"binder": "B1", "values": [{"measurement": "Kd", "setting": "[1]", "result": 13, "unit": "nM"}, {"measurement": "binding result", "setting": "[2]", "result": "no binding"}, {"measurement": "Kd", "setting": "[3]", "result": 6, "unit": "nM"}, {"measurement": "binding result", "setting": "[4]", "result": "binds"}, {"measurement": "Kd", "setting": "[5]", "result": 2, "unit": "nM"}]}, {"binder": "B2", "values": [{"measurement": "binding result", "setting": "[6]", "result": "no binding"}]}, {"binder": "B3", "values": [{"measurement": "binding result", "setting": "[7]", "result": "no binding"}, {"measurement": "binding result", "setting": "[8]", "result": "no binding"}]}, {"binder": "B4", "values": [{"measurement": "binding result", "setting": "[9]", "result": "no binding"}, {"measurement": "binding result", "setting": "[10]", "result": "no binding"}, {"measurement": "binding result", "setting": "[11]", "result": "no binding"}]}]}
